The values that follow come from publication PMC12305717.

Test [1] deals with Ssa1 (yeast cytosolic Hsp70) (yeast) (UniProt P10591).
Test [2] has the same target. This is another data set of the same source.
Test [3] has as its target DnaK (E. coli Hsp70) (E. coli) (UniProt P0A6Y8).

Chain of Ssa1 (yeast cytosolic Hsp70) (yeast) (P10591 whole entry): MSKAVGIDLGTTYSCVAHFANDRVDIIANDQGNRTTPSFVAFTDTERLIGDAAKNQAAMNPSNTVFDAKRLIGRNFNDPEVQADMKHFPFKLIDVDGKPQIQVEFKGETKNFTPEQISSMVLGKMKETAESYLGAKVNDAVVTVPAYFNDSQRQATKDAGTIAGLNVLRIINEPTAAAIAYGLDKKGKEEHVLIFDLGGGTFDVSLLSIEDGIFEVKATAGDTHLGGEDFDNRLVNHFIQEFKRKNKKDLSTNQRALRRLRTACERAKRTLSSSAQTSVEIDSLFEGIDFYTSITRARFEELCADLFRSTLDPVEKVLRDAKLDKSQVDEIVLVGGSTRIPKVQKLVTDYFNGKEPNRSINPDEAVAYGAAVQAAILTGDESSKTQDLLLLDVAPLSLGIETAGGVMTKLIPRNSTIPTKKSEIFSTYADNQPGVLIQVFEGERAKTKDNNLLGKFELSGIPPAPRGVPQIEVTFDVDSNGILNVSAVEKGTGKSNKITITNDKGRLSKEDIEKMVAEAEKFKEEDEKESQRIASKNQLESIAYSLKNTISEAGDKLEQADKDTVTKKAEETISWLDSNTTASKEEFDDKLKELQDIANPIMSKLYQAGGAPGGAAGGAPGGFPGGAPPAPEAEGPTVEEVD
Chain of DnaK (E. coli Hsp70) (E. coli) (P0A6Y8 whole entry): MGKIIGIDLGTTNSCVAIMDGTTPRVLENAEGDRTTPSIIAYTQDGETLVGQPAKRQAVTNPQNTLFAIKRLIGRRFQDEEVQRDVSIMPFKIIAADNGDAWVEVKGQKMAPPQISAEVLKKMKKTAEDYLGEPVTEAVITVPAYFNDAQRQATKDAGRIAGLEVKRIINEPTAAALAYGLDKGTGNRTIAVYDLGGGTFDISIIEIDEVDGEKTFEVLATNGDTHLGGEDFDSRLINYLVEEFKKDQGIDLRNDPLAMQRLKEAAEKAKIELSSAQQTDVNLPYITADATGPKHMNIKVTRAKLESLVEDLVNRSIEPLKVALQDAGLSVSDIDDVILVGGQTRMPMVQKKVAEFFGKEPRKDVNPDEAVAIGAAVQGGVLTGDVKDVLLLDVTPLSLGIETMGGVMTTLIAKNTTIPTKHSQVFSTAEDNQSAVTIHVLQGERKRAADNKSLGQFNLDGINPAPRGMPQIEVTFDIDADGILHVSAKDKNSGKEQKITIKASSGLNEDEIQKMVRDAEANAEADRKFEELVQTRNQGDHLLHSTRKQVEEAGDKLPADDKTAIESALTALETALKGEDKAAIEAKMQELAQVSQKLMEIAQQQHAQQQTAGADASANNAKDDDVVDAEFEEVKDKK

B1: Sse1 (yeast Hsp110), wild type (natural protein)
chain: MSTPFGLDLGNNNSVLAVARNRGIDIVVNEVSNRSTPSVVGFGPKNRYLGETGKNKQTSNIKNTVANLKRIIGLDYHHPDFEQESKHFTSKLVELDDKKTGAEVRFAGEKHVFSATQLAAMFIDKVKDTVKQDTKANITDVCIAVPPWYTEEQRYNIADAARIAGLNPVRIVNDVTAAGVSYGIFKTDLPEGEEKPRIVAFVDIGHSSYTCSIMAFKKGQLKVLGTACDKHFGGRDFDLAITEHFADEFKTKYKIDIRENPKAYNRILTAAEKLKKVLSANTNAPFSVESVMNDVDVSSQLSREELEELVKPLLERVTEPVTKALAQAKLSAEEVDFVEIIGGTTRIPTLKQSISEAFGKPLSTTLNQDEAIAKGAAFICAIHSPTLRVRPFKFEDIHPYSVSYSWDKQVEDEDHMEVFPAGSSFPSTKLITLNRTGDFSMAASYTDITQLPPNTPEQIANWEITGVQLPEGQDSVPVKLKLRCDPSGLHTIEEAYTIEDIEVEEPIPLPEDAPEDAEQEFKKVTKTVKKDDLTIVAHTFGLDAKKLNELIEKENEMLAQDKLVAETEDRKNTLEEYIYTLRGKLEEEYAPFASDAEKTKLQGMLNKAEEWLYDEGFDSIKAKYIAKYEELASLGNIIRGRYLAKEEEKKQAIRSKQEASQMAAMAEKLAAQRKAEAEKKEEKKDTEGDVDMD
As for B1, in test [1], the EC50 of Sse1 for raising the yields of disaggregation and refolding (luciferase activity after 2 h) of pre-aggregated MlucV or luciferase by 4000 nM Ssa1 + 1000 nM Sis1 with ATP came to 100 nM; the IC50 of excess Sse1 (above 250 nM) for inhibiting the disaggregation and refolding reaction of 4000 nM Ssa1 + 1000 nM Sis1; complete inhibition at equimolar Sse1 and Ssa1 amounted to 1200 nM. Besides, the optimal concentration of WT Sse1 for activating the disaggregation/refolding of pre-aggregated luciferase by 6000 nM Ssa1 + 1000 nM Sis1 in test [2] is 600 nM.

B2: Sse1-K69M (natural protein)
chain: MSTPFGLDLGNNNSVLAVARNRGIDIVVNEVSNRSTPSVVGFGPKNRYLGETGKNKQTSNIKNTVANLMRIIGLDYHHPDFEQESKHFTSKLVELDDKKTGAEVRFAGEKHVFSATQLAAMFIDKVKDTVKQDTKANITDVCIAVPPWYTEEQRYNIADAARIAGLNPVRIVNDVTAAGVSYGIFKTDLPEGEEKPRIVAFVDIGHSSYTCSIMAFKKGQLKVLGTACDKHFGGRDFDLAITEHFADEFKTKYKIDIRENPKAYNRILTAAEKLKKVLSANTNAPFSVESVMNDVDVSSQLSREELEELVKPLLERVTEPVTKALAQAKLSAEEVDFVEIIGGTTRIPTLKQSISEAFGKPLSTTLNQDEAIAKGAAFICAIHSPTLRVRPFKFEDIHPYSVSYSWDKQVEDEDHMEVFPAGSSFPSTKLITLNRTGDFSMAASYTDITQLPPNTPEQIANWEITGVQLPEGQDSVPVKLKLRCDPSGLHTIEEAYTIEDIEVEEPIPLPEDAPEDAEQEFKKVTKTVKKDDLTIVAHTFGLDAKKLNELIEKENEMLAQDKLVAETEDRKNTLEEYIYTLRGKLEEEYAPFASDAEKTKLQGMLNKAEEWLYDEGFDSIKAKYIAKYEELASLGNIIRGRYLAKEEEKKQAIRSKQEASQMAAMAEKLAAQRKAEAEKKEEKKDTEGDVDMD
On to B2, for which, in test [2], the concentration at which excess Sse1-K69M inhibits the disaggregation/refolding by 6000 nM Ssa1 + 1000 nM Sis1, against WT Sse1 (fold lower than WT Sse1) is 4 and the optimal concentration of Sse1-K69M for activating the disaggregation/refolding of pre-aggregated luciferase by 6000 nM Ssa1 + 1000 nM Sis1 was found to be 200 nM.

B3: GrpE (E. coli nucleotide exchange factor) (natural protein)
chain: MSSKEQKTPEGQAPEEIIMDQHEEIEAVEPEASAEQVDPRDEKVANLEAQLAEAQTRERDGILRVKAEMENLRRRTELDIEKAHKFALEKFINELLPVIDSLDRALEVADKANPDMSAMVEGIELTLKSMLDVVRKFGVEVIAETNVPLDPNVHQAIAMVESDDVAPGNVLGIMQKGYTLNGRTIRAAMVTVAKAKA
On to B3, for which the EC50 of GrpE for raising the yields of disaggregation and refolding of pre-aggregated MlucV by 4000 nM DnaK + 1000 nM DnaJ in test [3] amounted to 200 nM.
